From paper PMC4565669, “Insulin and mTOR Pathway Regulate HDAC3-Mediated Deacetylation and Activation of PGK1” (PLoS Biology, 2015) come the findings set out here.

Assay [1] deals with PGK1 (UniProt P00558). The assay is described as follows: co-IP with HA beads, Flag blot. As to conditions: reference: wild type HDAC3, insulin-treated; sites S424.
Assay [2] concerns the target PGK1 (UniProt P00558). Description: co-IP of HA-HDAC3, PGK1 blot. As to conditions: reference: wild type HA-HDAC3; sites S424.
For the next assay, the target named is T1, GST-HDAC3 (recombinant) (UniProt O15379-1 1-428).
T1 construct: source: E. coli, purified
The assay is described as follows: pull-down; in vitro pull-down with recombinant GST-HDAC3 (30 ug) and His-PGK1 (10 ug) purified from E. coli; details in S1 Text. As to conditions: both partners purified.

T1 sequence (O15379 whole entry): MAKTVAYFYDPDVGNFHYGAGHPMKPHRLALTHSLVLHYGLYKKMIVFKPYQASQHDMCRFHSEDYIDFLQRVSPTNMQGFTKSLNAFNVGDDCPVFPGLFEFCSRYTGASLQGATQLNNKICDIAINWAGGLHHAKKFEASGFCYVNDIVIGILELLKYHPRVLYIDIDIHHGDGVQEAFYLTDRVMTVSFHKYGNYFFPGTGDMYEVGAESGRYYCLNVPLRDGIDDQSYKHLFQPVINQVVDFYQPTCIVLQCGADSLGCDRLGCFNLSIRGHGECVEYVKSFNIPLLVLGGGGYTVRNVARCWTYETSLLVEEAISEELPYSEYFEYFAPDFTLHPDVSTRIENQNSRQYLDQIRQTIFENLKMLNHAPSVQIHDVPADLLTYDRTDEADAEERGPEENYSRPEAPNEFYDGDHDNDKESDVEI

With “HDAC3 (from UniProt O15379) S424A, insulin-treated”, the “binding against the reference” value with PGK1 [1] was “weaker”.

As to HDAC3 (from UniProt O15379) S424A, the “binding against the reference” value in the assay with PGK1 [2] is “weaker”.

B1: His-PGK1 (recombinant) (enzyme, human, UniProt P00558 1-417, looked up)
chain: MSLSNKLTLDKLDVKGKRVVMRVDFNVPMKNNQITNNQRIKAAVPSIKFCLDNGAKSVVLMSHLGRPDGVPMPDKYSLEPVAVELKSLLGKDVLFLKDCVGPEVEKACANPAAGSVILLENLRFHVEEEGKGKDASGNKVKAEPAKIEAFRASLSKLGDVYVNDAFGTAHRAHSSMVGVNLPQKAGGFLMKKELNYFAKALESPERPFLAILGGAKVADKIQLINNMLDKVNEMIIGGGMAFTFLKVLNNMEIGTSLFDEEGAKIVKDLMSKAEKNGVKITLPVDFVTADKFDENAKTGQATVASGIPAGWMGLDCGPESSKKYAEAVTRAKQIVWNGPVGVFEWEAFARGTKALMDEVVKATSRGCITIIGGGDTATCCAKWNTEDKVSHVSTGGGASLELLEGKVLPGVDALSNI
notes: Phosphoglycerate kinase 1 (PGK1), human, Gene ID 5230; unacetylated recombinant protein; also called His-tagged PGK1; source: E. coli, purified
With B1, in the assay with GST-HDAC3 (recombinant), the binding result was “binds”.
